Laboratory results reported in the DeepSol protein solubility set.

Experiment: soluble on expression in E. coli; label from the status in PepcDB or PDB records

| Sequence | soluble on expression in E. coli |
| --- | --- |
| MAKTPVLLDRWGKPVKRAVLTEEISAATLGSVRSPITGYPADGLNPVRLASILREADAGDPVRYLELAETIEERDLHYLGVLGTRRRSVSQLDITVEAASDDPRDVEIADMIRDWLTRDELSDELFHMLDCIGKGYSFTEIIWDTSEGQWRPARLEWRDPRWFRFDRAALTTPLMLGPHGEELELTPFKFIFAEVKAKSGIALRSGLARAAAWAWMFKAFTQRDWAIFTQTYGQPLRLGRYGPGASEDDKATLFRAVANIAGDCAAIIPESMAIDFVETKSVGATADLYKQRADWLDQQISKAVLGQTATTDAVTGGLGSGKEHRQVQEDIERADAKALSGILNRDLIRPWVDLEYGPQARYPRLKIARPEPEDLKAMAEALAALVPIGLRVSQKKTRDRFGFDEPENDADVMGGTPAAAAVAAPPGADRPIKRFSGVFKGGEPPARPETALQAEAAPAALPASDDPAALLADRLAADAAPAMGAMIERVETMLAAAGSLAEFREMLLAGFPGIDAGDLATLMAQAMMAAHAGGRAAAEDAGA | not soluble |
| MSLRPRMIDWLQARNIGVAVSQSYLAPVVDRAARQEQYRRMVQRSEPLISAYMGVRLPQPIDRIYVFDRAEWIEANLAAFQSLFAPLEELYDEVSARQGMVGILIGQLNSQLIGMQVGALIGFLARRVLGQYDLGLLSPDPDLRGALYFVEPNIARICAQLGLNGDDFRMWIALHETTHVFEFEAFPWVRAYFQDLLRQFIGRVNDQAAMLSVGIVRLIERLLQGQPIDHHWIELMLTPEQREIFTRMQALMSVVEGYSNHIMNAIGAQLLPSYPSIEARVRQRQLRRPLIEEAFNRITGMDLKLAQYQQGEAFINAVVAACGADFANRIWERPENLPTMDEIRAPHRWIARMSGEGHHHHHH | soluble |
| GPGSMLHPYIAGFDGLTCVAGTPADTLARNPDTGTTGRGTGSGVEGVFGTSLDVAGQLAGFETLTSASLNNNFLYDGLPSSGVTLREPLLSTHLTRSPTTLSTVGEAAMQPTQNPTQTPQQDPLPDLNTLATNAFFPFPSAAGAASAEGGQQQMATANLYGASQLESIMKASAGDGKSASTAPEPAANNLLGRLTVSTLAAQSATPGTSPQSQPCPVPQFTPLGAGACSNASRSSAPSYSSASVPIGCGPQMCSGDTSFLYPNFVNEMSSVTPPQSVQGHTEGFVAGVTTPPAMPMNSSTMSNKGGSMNDNTSTSLSQATSSGIATSSGQPNDVEVRSNLFVCGLPVSVRDKELLELFEKHGEIESAKVMLDIHTGRIRGIAFVKFKNVEHAENAVDALNGTTVNGHQITVRVANSRAAYLPGNPTNKTFVRNVPLTVSRTTLFEYFAQFGEVTDLSIKSDTAQGRHNPSGRSASTTEDGADDKLNIVFITYSTKEAAAKAAEATHTKTPFKECNGVPLLAKVAEDTVRRMERLSRRQRPATGAEGTREVSTSSSSTNVASMSRFAAPSMGAALPTGMMMPPMMPMAGSFPPGTFVSVPTMGNTPDLTAPTMMPASVAGDHMTALRDASGNPIYSPAQPNPATATGGMAYAMPGNMAQPSIFFSAQPPPPAINQSPPQQSQQQPQAQPQTLYISTPNGFVPAPQQHQQQQQLPQPPPPQQQQPLQFFPAPPLLPQVPQQSQQTMPMPGAAPGQLVYMQTPNGSMMPVMYGGAQPATASMLPTQQMNPYFVMMGGQPPSNQ | soluble |
| NIDGYNELTVGELTGPTTIETFPTPDLPGGLAGGVSWGPDAERFAVSVTGRTVNTNVFVVETETGESEQWTAASTAGIPQETLIEPEVVRFDSFDGREIPALFSPPDGAADGAGADGDTPVIVDIHGGPESQRRPSFSGLTQYFLSRGYAVFEPNVRGSTGYGKAYTHLDDVEKRMDSVKDLRAGVDWLHNHPAVDPDRIVAMGGSYGGFMVLAALTEYPDLWAAGVDVVGIANFVTFLENTGDWRRELREAEYGSLDTDREFLESISPINNVDRINAPLFVLHGANDPRVPVGEAEQIAEQAAEQGVPVEKLVFDDEGHGISKRENRIEAYTAVVEFLDDHV | not soluble |
| MENRYSVHPEQVKRFTTEELRSHFLMDSLFTENKLTMYYSHEDRVVIGGAAPGQSELKLDAGDFLKTDFFLERREIGIINVGQPGAVRVGDDEYVLQTKDFLYIGMGNQDVSFSSLNGEKAKFYFVSACAHKSYPTQKAALSELTPDRLGDDAASNVRSLYKVIHQDGIKSCQLMMGITMLDQNNNWNTMPAHVHDRRMEAYLYLDLEKDSKVFHFMGQPDETRHLVVGNEQAVLSPAWSIHSGAGTSNYSFVWAMAGENYTFTDMDLIPMDGLK | not soluble |
| MAYNLKEVAKKPERLTGGHRMCAGCGAPIVVRQVLKALKPEDHAVISAATGCLEVSTFIYPYTAWKDSFIHSAFENTGATISGAEAAYKVLKKKGKIEGETKFIAFGGDGGTYDIGLQALSGAMERGHDMVYVCYDNGAYMNTGIQRSSATPKYADTTTSPVGKKIPGKMQPRKDLTEVLVNHRIPYVAQTAPFGNMKDLYEKAEKAIYTPGPAFLNVLAPCPRGWRYNTPDLMELSKLAVETCFWPLYEVIDGKYIINYKPKEKVPVKEFLKLQGRFKHLFKAGNEYMLEEIQKEVDLRWERLLKLAGEA | not soluble |
| EAEERQRNMINKTHVGLLLIDGQGRIEEINPMAKRYFSLSDSMVRQLQAWSLFDTGNPNATVPLLLKNLTEHQELADITNVETVARRSDGSLFPVLFSLIAVSWKDRRHYLVTLIDIS | not soluble |
| MSLRDHGAPYGAHTLAYRPSGELLLVRHEGVDMWVLPGGELDRGESFQEAALRELGEESGIEATIEGLGMLGRVEFYCDGNMAWGVLPVYEAQAETTDIAVDDPDHEISEAQWFDKLPADTRDREEILQWRGQRFSGREGHHHHHH | soluble |
| MSSYDIAIIGGGISGVGIAQYAAAAGYSTLLIEKGEIGGQTSANSSKLIHGGLRYLESGQINLVRKSLLERRNLLDLAPSLVKPVAFYIPVYQDSRRNPLTIRAGLSLYALLSEFDPLGRFVSIPAVHWHRFKGLKLSGLKAVFQYWDAQTDDKLLTQAVARSAQALGAHIYAEAEFLQLNHLKEQIELSFRHRGEVQQIETKLVINAAGPWVNEVLAHVEPPLAGVEIDWVQGAHLLLDLPAPEGILYLESCFDKRVIFVMPWYGQMLIGTTETVLTSIDTPPQVTESETQYLLGIYCHYFPLSPSIEELKTKIVQTYCGVRVLPKQASSAFERPRDTLMQTSISHPRLLCLYGGKLTTFRSSSAEVLEWIEQKLGKRQPIADIDTLKLTLEHHHHHH | not soluble |
| MAGLTRALVARHALGRAEAYDAALLDVAQDHLLYLLSQTVQFGDNRLVFKGGTSLRKCRLGNVGRFSTDLDFSAPDDEVVLEVCELIDGARVGGFEFGVQSTRGDGRHWQLRVRHTELGEPRIVASVEFARRPLALPSELLAFIQLPIHKAYGFGLPTLPVVAEAEACAEKLARYRRVALARDLYDLNHFASRTIDEPLVRRLWVLKVWGDVVDDRRGTRPLRVEDVLAARSEHDFQPDSIGVLTRPVAMAAWEARVRKRFAFLTDLDADEQRWAACDERHRREVENALAVLRS | soluble |
| MNRMDNDLLAIQEARILIENAREAQKALATFSQEKLDRIVERMAGEVVKYARELAMMSHEETGFGKWQDKYIKNIFASDFLCKKIRKMKVVGIIAEDKENQTLDVGVPVGVIVALLPSTNPVSTAIYKTLIAIKSGNAIVFSPHPKAKKTTRRVLEILVRTAEASGLPCGAIGYQRTQALEGTLGLMNHKDTALIIVTGVPKLVKAAYAAGKPTIYGGPGNGPAFIERSADIKQAVADIITSRTFDHGIVSASEQSVVAEECIADEVRQELRGNGGYFLSEEEAEQLGKLFLRPDGSVNPDIVGKSAVELARKIGITVSENTKVLISEQKFVSPTNPYAKEKLCPVLAFYVEKDWFNACEKCIELLLNDGRGHTLVIHSRNEQVIREFALKKPVSRVLVNTPATLGGIGGTTNLFPALTLGCGAVGGGFTSDNVSPLNLINIRKVGYGVRKLEDITCGVQAESVGSSESAGLTRLTGLNGSLCPGPGYPKERTQDLNELLETLLEQLLPYRNA | not soluble |
| MAHHHHHHMSLLKADQLRRDLFIKYSDKIAELLGETEECSPTEEQREKEEIETTEQRGLSSLPKRFRISYPRQHLLRQRAMQMPPAADVGDAENSPASASNSTCPPLGETATDEDENVETIWVELDEEEKRPVYNEPYPSVKRMMRRMQDESLRLLMREARIPVTPHQGDAYLLQRMEVLQQLEKNIGDDRIKILARLQKMDGKLHTCE | soluble |
| QSAYSRIEAESYSNQSGIQTETCSEGGEDVGFVENGDYTVYNNVDFGDGVGGFQARVASATSGGNIEIRLDSSTGTLIGTCPVAGTGDWQTYTDAKCTVSGVTGKHDVYLVFKGDSGYLFNLNWFTFSE | soluble |
| MAEITEKVLKKPNAIPDVFERKGGSAPTATHYCAGCGHGIIHKLMAEAIDELEIQDRCVLISPVGCAVFAYYYFDCGNIQVAHGRAPAVGTGVSRAEDNAIVMSYQGDGDLASIGLNETIQAANRGEKMAVFFVNNTVYGMTGGQMAPTTLIGEKTVTCQTGRDPRFAGYPIHMCELLSSLKAPVFIERVSVSDIAHIRKAKRAIKKALEIQRDGKGYAFVEILSPCPTNLRQDANAAQKFINEEMEKEFPLQNFRDRSAEVETLNRGESDFSKECLDNIFEVNSKGAEDPSEDLSFE | not soluble |
| RFTPRWIVRFLVENSLGRLWAEMHPDSRLKDSLSYLVPIENSQAHPLKLVRDITFLDPSCGSMHFGLVAFDLFAEMYREEFEKAGQPGWPENPSVNAEDEIASSIIAHNLHGIDIDLRSVQISALTLLLRARTLSPKCAFTDRNLACANVEQTSGGKLETLIAAAKFSHPIYERVLRTLAAEMKDSDQLGSLLRLERSLERLVIEERRKAEENKQFLLSFPGISPEQFDTQAGIEEFFDLLSDQLLRHLDFFVRASREMGGDPGHIVNEAAKGLRYMQLVSHHYDVVATNPPYMSRRNMSDVIAKHLDKHYPETKGDLYAAFIARCLELVAPQGKVAMVTQQSFMFIGTYEKFRSNLLSRVTVETMAHLGPKAFPNITGEKVNTTAFVIRREPDG | not soluble |
| GQVIARHKVREFNINPVNTPTKSKLHPSVFYDVFPGDKEPAVLSDNDPRLEVKLTESLFSKYKGNVNTEPTENMLVAVDHYAGQLLSLDIPTSELTLKEALYGVDGLEPIDITTSAGFPYVSLGIKKRDILNKETQDTEKMKFYLDKYGIDLPLVTYIKDELRSVDKVRLGKSRLIEASSLNDSVNMRMKLGNLYKAFHQNPGVLTGSAVGCDPDVFWSVIPCLMDGHLMAFDYSNFDASLSPVWFVCLEKVLTKLGFAGSSLIQSICNTHHIFRDEIYVVEGGMPSGCSGTSIFNSMINNIIIRTLILDAYKGIDLDKLKILAYGDDLIVSYPYELDPQVLATLGKNYGLTITPPDKSETFTKMTWENLTFLKRYFKPDQQFPFLVHPVMPMKDIHESIRWTKDPKNTQDHVRSLCMLAWHSGEKEYNEFIQKIRTTDIGKCLILPEYSVLRRRWLDLFHHHHHH | soluble |
| MDRKIREQIIAIYSNLQHKQDLTQFAHCLTTKADDNCEDFFNLGLQFQNNQLTALGFNGEGCIISTIASELTLSALEGKTIKEAIVLLEQFMEAVQTGSLSTPLPQALQLLWDFQIDQKRLNCLLLTPQNLLQWLKDFSH | soluble |
| MGHHHHHHSHMIGKCTHVVDCRETMGMGEGGGIAQRGTFAQCGSEVLAVAMSPGRRHITKPVCEITFALREANIMTSTIVLNAGAGVPQDAPSAGAGSLFGLTPAEVEQMKRHKLLVVHLGGVKNHITYKARLILRNVDRPCIIICEYPVDFEDFAKIGVRTRAVMPDEPKTKGTIVDIVSGVIRGETCPQEKLDEIIRKVKLALGGA | soluble |
| AIANFNDAKNEILQVLSKTERQHLPKLLEWIKTSDDLDDILVDNQSVILHSIAEDLRACLPMEAMAPSETLAMQKTQQKAHPTVHVDAFLYDDETVDSLCEEGKMSRTYCLNCGSHRTAPLEFISHSFSIPELQFLFHNVLPELTGKLVLDVGSRLGAVLFGGYLYSAASQLVGVEMSSEFVKLQSMAVEKYGFSDRIQVIHADIRSQIALVQKADVLIMNNVFEYFMEPRDQMQAWLYISQNFRKKGALLVTVPSIQEALGLLQDAAFLETLSLSQWIEEIPVDYSVYLKNDTDPDSLKQIHLYRVL | soluble |
